The binders below were run against T1, human IL-18BP (human, UniProt O95998 31-194) (assay: BLI, apparent KD).
T1 construct: UniProt printed as 095998; also called hIL-18BP
T1 sequence: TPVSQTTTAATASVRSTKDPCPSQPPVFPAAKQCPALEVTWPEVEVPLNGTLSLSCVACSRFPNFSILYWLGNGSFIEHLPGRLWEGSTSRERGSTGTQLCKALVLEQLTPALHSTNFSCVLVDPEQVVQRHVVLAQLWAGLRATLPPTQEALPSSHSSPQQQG

| Binder | Kd |
| --- | --- |
| SA301a HC-N58V (antibody, name in Kabat numbering, V domains shown, IgG1 kappa) VH: QVQLQESGPGLVKPSQTLSLTCTVSGYSITSDYNSHWIRQPPGKGLEWIGYIHYSGSTVYNPSLKSRVTISRDTSKNQFSLKLSSVTAADTAVYYCARNYGSIYVNYFDYWGQGTLVTVSS VL: EIVLTQSPATLSLSPGERATLSCSASSSVSYMYWYQQKPGQAPRPLIYRTSNLASGIPARFSGSGSGTDFTLTISSLEPEDFAVYYCQQYHSYPTFGGGTKVEIK | 0.44 nM |
| SA301a HC-N58Y (antibody, name in Kabat numbering, V domains shown, IgG1 kappa) VH: QVQLQESGPGLVKPSQTLSLTCTVSGYSITSDYNSHWIRQPPGKGLEWIGYIHYSGSTYYNPSLKSRVTISRDTSKNQFSLKLSSVTAADTAVYYCARNYGSIYVNYFDYWGQGTLVTVSS VL: EIVLTQSPATLSLSPGERATLSCSASSSVSYMYWYQQKPGQAPRPLIYRTSNLASGIPARFSGSGSGTDFTLTISSLEPEDFAVYYCQQYHSYPTFGGGTKVEIK | 0.41 nM |
| SA301a HC-S56V (antibody, name in Kabat numbering, V domains shown, IgG1 kappa) VH: QVQLQESGPGLVKPSQTLSLTCTVSGYSITSDYNSHWIRQPPGKGLEWIGYIHYSGVTNYNPSLKSRVTISRDTSKNQFSLKLSSVTAADTAVYYCARNYGSIYVNYFDYWGQGTLVTVSS VL: EIVLTQSPATLSLSPGERATLSCSASSSVSYMYWYQQKPGQAPRPLIYRTSNLASGIPARFSGSGSGTDFTLTISSLEPEDFAVYYCQQYHSYPTFGGGTKVEIK | 0.25 nM |
| SA301a HC-S56F (antibody, name in Kabat numbering, V domains shown, IgG1 kappa) VH: QVQLQESGPGLVKPSQTLSLTCTVSGYSITSDYNSHWIRQPPGKGLEWIGYIHYSGFTNYNPSLKSRVTISRDTSKNQFSLKLSSVTAADTAVYYCARNYGSIYVNYFDYWGQGTLVTVSS VL: EIVLTQSPATLSLSPGERATLSCSASSSVSYMYWYQQKPGQAPRPLIYRTSNLASGIPARFSGSGSGTDFTLTISSLEPEDFAVYYCQQYHSYPTFGGGTKVEIK | 0.7 nM |
| SA301a HC-S56K (antibody, name in Kabat numbering, V domains shown, IgG1 kappa) VH: QVQLQESGPGLVKPSQTLSLTCTVSGYSITSDYNSHWIRQPPGKGLEWIGYIHYSGKTNYNPSLKSRVTISRDTSKNQFSLKLSSVTAADTAVYYCARNYGSIYVNYFDYWGQGTLVTVSS VL: EIVLTQSPATLSLSPGERATLSCSASSSVSYMYWYQQKPGQAPRPLIYRTSNLASGIPARFSGSGSGTDFTLTISSLEPEDFAVYYCQQYHSYPTFGGGTKVEIK | 0.64 nM |
| SA301a HC-T57A (antibody, name in Kabat numbering, V domains shown, IgG1 kappa) VH: QVQLQESGPGLVKPSQTLSLTCTVSGYSITSDYNSHWIRQPPGKGLEWIGYIHYSGSANYNPSLKSRVTISRDTSKNQFSLKLSSVTAADTAVYYCARNYGSIYVNYFDYWGQGTLVTVSS VL: EIVLTQSPATLSLSPGERATLSCSASSSVSYMYWYQQKPGQAPRPLIYRTSNLASGIPARFSGSGSGTDFTLTISSLEPEDFAVYYCQQYHSYPTFGGGTKVEIK | 0.9 nM |
| SA301a HC-S56Y (antibody, name in Kabat numbering, V domains shown, IgG1 kappa) VH: QVQLQESGPGLVKPSQTLSLTCTVSGYSITSDYNSHWIRQPPGKGLEWIGYIHYSGYTNYNPSLKSRVTISRDTSKNQFSLKLSSVTAADTAVYYCARNYGSIYVNYFDYWGQGTLVTVSS VL: EIVLTQSPATLSLSPGERATLSCSASSSVSYMYWYQQKPGQAPRPLIYRTSNLASGIPARFSGSGSGTDFTLTISSLEPEDFAVYYCQQYHSYPTFGGGTKVEIK | 1 nM |
| SA301a HC-S54F (antibody, name in Kabat numbering, V domains shown, IgG1 kappa) VH: QVQLQESGPGLVKPSQTLSLTCTVSGYSITSDYNSHWIRQPPGKGLEWIGYIHYFGSTNYNPSLKSRVTISRDTSKNQFSLKLSSVTAADTAVYYCARNYGSIYVNYFDYWGQGTLVTVSS VL: EIVLTQSPATLSLSPGERATLSCSASSSVSYMYWYQQKPGQAPRPLIYRTSNLASGIPARFSGSGSGTDFTLTISSLEPEDFAVYYCQQYHSYPTFGGGTKVEIK | 0.56 nM |
| SA301a HC-S56M (antibody, name in Kabat numbering, V domains shown, IgG1 kappa) VH: QVQLQESGPGLVKPSQTLSLTCTVSGYSITSDYNSHWIRQPPGKGLEWIGYIHYSGMTNYNPSLKSRVTISRDTSKNQFSLKLSSVTAADTAVYYCARNYGSIYVNYFDYWGQGTLVTVSS VL: EIVLTQSPATLSLSPGERATLSCSASSSVSYMYWYQQKPGQAPRPLIYRTSNLASGIPARFSGSGSGTDFTLTISSLEPEDFAVYYCQQYHSYPTFGGGTKVEIK | 0.46 nM |
| SA301a HC-S56R (antibody, name in Kabat numbering, V domains shown, IgG1 kappa) VH: QVQLQESGPGLVKPSQTLSLTCTVSGYSITSDYNSHWIRQPPGKGLEWIGYIHYSGRTNYNPSLKSRVTISRDTSKNQFSLKLSSVTAADTAVYYCARNYGSIYVNYFDYWGQGTLVTVSS VL: EIVLTQSPATLSLSPGERATLSCSASSSVSYMYWYQQKPGQAPRPLIYRTSNLASGIPARFSGSGSGTDFTLTISSLEPEDFAVYYCQQYHSYPTFGGGTKVEIK | 0.17 nM |
| SA301a HC-S56G (antibody, name in Kabat numbering, V domains shown, IgG1 kappa) VH: QVQLQESGPGLVKPSQTLSLTCTVSGYSITSDYNSHWIRQPPGKGLEWIGYIHYSGGTNYNPSLKSRVTISRDTSKNQFSLKLSSVTAADTAVYYCARNYGSIYVNYFDYWGQGTLVTVSS VL: EIVLTQSPATLSLSPGERATLSCSASSSVSYMYWYQQKPGQAPRPLIYRTSNLASGIPARFSGSGSGTDFTLTISSLEPEDFAVYYCQQYHSYPTFGGGTKVEIK | 0.46 nM |
| SA301a HC-S56I (antibody, name in Kabat numbering, V domains shown, IgG1 kappa) VH: QVQLQESGPGLVKPSQTLSLTCTVSGYSITSDYNSHWIRQPPGKGLEWIGYIHYSGITNYNPSLKSRVTISRDTSKNQFSLKLSSVTAADTAVYYCARNYGSIYVNYFDYWGQGTLVTVSS VL: EIVLTQSPATLSLSPGERATLSCSASSSVSYMYWYQQKPGQAPRPLIYRTSNLASGIPARFSGSGSGTDFTLTISSLEPEDFAVYYCQQYHSYPTFGGGTKVEIK | 0.48 nM |
| SA301a HC-S56E (antibody, name in Kabat numbering, V domains shown, IgG1 kappa) VH: QVQLQESGPGLVKPSQTLSLTCTVSGYSITSDYNSHWIRQPPGKGLEWIGYIHYSGETNYNPSLKSRVTISRDTSKNQFSLKLSSVTAADTAVYYCARNYGSIYVNYFDYWGQGTLVTVSS VL: EIVLTQSPATLSLSPGERATLSCSASSSVSYMYWYQQKPGQAPRPLIYRTSNLASGIPARFSGSGSGTDFTLTISSLEPEDFAVYYCQQYHSYPTFGGGTKVEIK | 0.48 nM |
| SA301a HC-S56D (antibody, name in Kabat numbering, V domains shown, IgG1 kappa) VH: QVQLQESGPGLVKPSQTLSLTCTVSGYSITSDYNSHWIRQPPGKGLEWIGYIHYSGDTNYNPSLKSRVTISRDTSKNQFSLKLSSVTAADTAVYYCARNYGSIYVNYFDYWGQGTLVTVSS VL: EIVLTQSPATLSLSPGERATLSCSASSSVSYMYWYQQKPGQAPRPLIYRTSNLASGIPARFSGSGSGTDFTLTISSLEPEDFAVYYCQQYHSYPTFGGGTKVEIK | 0.62 nM |
| SA301a HC-S54D (antibody, name in Kabat numbering, V domains shown, IgG1 kappa) VH: QVQLQESGPGLVKPSQTLSLTCTVSGYSITSDYNSHWIRQPPGKGLEWIGYIHYDGSTNYNPSLKSRVTISRDTSKNQFSLKLSSVTAADTAVYYCARNYGSIYVNYFDYWGQGTLVTVSS VL: EIVLTQSPATLSLSPGERATLSCSASSSVSYMYWYQQKPGQAPRPLIYRTSNLASGIPARFSGSGSGTDFTLTISSLEPEDFAVYYCQQYHSYPTFGGGTKVEIK | 0.22 nM |
| SA301a HC-S56L (antibody, name in Kabat numbering, V domains shown, IgG1 kappa) VH: QVQLQESGPGLVKPSQTLSLTCTVSGYSITSDYNSHWIRQPPGKGLEWIGYIHYSGLTNYNPSLKSRVTISRDTSKNQFSLKLSSVTAADTAVYYCARNYGSIYVNYFDYWGQGTLVTVSS VL: EIVLTQSPATLSLSPGERATLSCSASSSVSYMYWYQQKPGQAPRPLIYRTSNLASGIPARFSGSGSGTDFTLTISSLEPEDFAVYYCQQYHSYPTFGGGTKVEIK | 0.36 nM |
| SA301a HC-S56H (antibody, name in Kabat numbering, V domains shown, IgG1 kappa) VH: QVQLQESGPGLVKPSQTLSLTCTVSGYSITSDYNSHWIRQPPGKGLEWIGYIHYSGHTNYNPSLKSRVTISRDTSKNQFSLKLSSVTAADTAVYYCARNYGSIYVNYFDYWGQGTLVTVSS VL: EIVLTQSPATLSLSPGERATLSCSASSSVSYMYWYQQKPGQAPRPLIYRTSNLASGIPARFSGSGSGTDFTLTISSLEPEDFAVYYCQQYHSYPTFGGGTKVEIK | 0.55 nM |
| SA301a HC-S54A (antibody, name in Kabat numbering, V domains shown, IgG1 kappa) VH: QVQLQESGPGLVKPSQTLSLTCTVSGYSITSDYNSHWIRQPPGKGLEWIGYIHYAGSTNYNPSLKSRVTISRDTSKNQFSLKLSSVTAADTAVYYCARNYGSIYVNYFDYWGQGTLVTVSS VL: EIVLTQSPATLSLSPGERATLSCSASSSVSYMYWYQQKPGQAPRPLIYRTSNLASGIPARFSGSGSGTDFTLTISSLEPEDFAVYYCQQYHSYPTFGGGTKVEIK | 0.11 nM |
| SA301a HC-T57D (antibody, name in Kabat numbering, V domains shown, IgG1 kappa) VH: QVQLQESGPGLVKPSQTLSLTCTVSGYSITSDYNSHWIRQPPGKGLEWIGYIHYSGSDNYNPSLKSRVTISRDTSKNQFSLKLSSVTAADTAVYYCARNYGSIYVNYFDYWGQGTLVTVSS VL: EIVLTQSPATLSLSPGERATLSCSASSSVSYMYWYQQKPGQAPRPLIYRTSNLASGIPARFSGSGSGTDFTLTISSLEPEDFAVYYCQQYHSYPTFGGGTKVEIK | 1.73 nM |
| SA301a HC-S56P (antibody, name in Kabat numbering, V domains shown, IgG1 kappa) VH: QVQLQESGPGLVKPSQTLSLTCTVSGYSITSDYNSHWIRQPPGKGLEWIGYIHYSGPTNYNPSLKSRVTISRDTSKNQFSLKLSSVTAADTAVYYCARNYGSIYVNYFDYWGQGTLVTVSS VL: EIVLTQSPATLSLSPGERATLSCSASSSVSYMYWYQQKPGQAPRPLIYRTSNLASGIPARFSGSGSGTDFTLTISSLEPEDFAVYYCQQYHSYPTFGGGTKVEIK | 0.97 nM |
| SA301a HC-S56T (antibody, name in Kabat numbering, V domains shown, IgG1 kappa) VH: QVQLQESGPGLVKPSQTLSLTCTVSGYSITSDYNSHWIRQPPGKGLEWIGYIHYSGTTNYNPSLKSRVTISRDTSKNQFSLKLSSVTAADTAVYYCARNYGSIYVNYFDYWGQGTLVTVSS VL: EIVLTQSPATLSLSPGERATLSCSASSSVSYMYWYQQKPGQAPRPLIYRTSNLASGIPARFSGSGSGTDFTLTISSLEPEDFAVYYCQQYHSYPTFGGGTKVEIK | 0.45 nM |
| SA301a HC-S56A (antibody, name in Kabat numbering, V domains shown, IgG1 kappa) VH: QVQLQESGPGLVKPSQTLSLTCTVSGYSITSDYNSHWIRQPPGKGLEWIGYIHYSGATNYNPSLKSRVTISRDTSKNQFSLKLSSVTAADTAVYYCARNYGSIYVNYFDYWGQGTLVTVSS VL: EIVLTQSPATLSLSPGERATLSCSASSSVSYMYWYQQKPGQAPRPLIYRTSNLASGIPARFSGSGSGTDFTLTISSLEPEDFAVYYCQQYHSYPTFGGGTKVEIK | 0.2 nM |
